What was measured:
[1] = molecular target: RARa:RXRa (Homo sapiens, UniProt P10276;P19793 full;full); assay: no ligand; PBM; 270 nM : 90 nM RXRa; PBS pH 7.4, 2% milk, 0.02% Triton X-100, 1 mM DTT, BSA, 0.4 mg/ml salmon testes DNA; details: tags: His kept;His cleaved; copies: 1;1; label: surface-attached array probe
In short: (§1)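 Probes were double-stranded and carried 34-nt variable regions with direct-repeat seeds, single-nucleotide variants, half-site ablations and random human genomic background sequences, printed on custom Agilent 4×180K protein-binding microarrays. Arrays were incubated 1 h with ligand-free nuclear receptor dimers in PBS pH 7.4, 2% milk, 0.02% Triton X-100, 1 mM DTT, 0.2 mg/mL BSA and 0.4 mg/ml salmon testes DNA. Antibodies against each partner (one per run) detected binding, and scanned fluorescence was regression-normalized. Binding z-scores use the random background probes as reference.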

[2] = molecular target: PPARa:RXRa (Homo sapiens, UniProt Q07869;P19793 full;full); assay: as above; details: tags: GST kept;His cleaved; copies: 1;1; label: surface-attached array probe
PPARa:RXRa, sequence (Q07869 whole entry, chain 1 of 2): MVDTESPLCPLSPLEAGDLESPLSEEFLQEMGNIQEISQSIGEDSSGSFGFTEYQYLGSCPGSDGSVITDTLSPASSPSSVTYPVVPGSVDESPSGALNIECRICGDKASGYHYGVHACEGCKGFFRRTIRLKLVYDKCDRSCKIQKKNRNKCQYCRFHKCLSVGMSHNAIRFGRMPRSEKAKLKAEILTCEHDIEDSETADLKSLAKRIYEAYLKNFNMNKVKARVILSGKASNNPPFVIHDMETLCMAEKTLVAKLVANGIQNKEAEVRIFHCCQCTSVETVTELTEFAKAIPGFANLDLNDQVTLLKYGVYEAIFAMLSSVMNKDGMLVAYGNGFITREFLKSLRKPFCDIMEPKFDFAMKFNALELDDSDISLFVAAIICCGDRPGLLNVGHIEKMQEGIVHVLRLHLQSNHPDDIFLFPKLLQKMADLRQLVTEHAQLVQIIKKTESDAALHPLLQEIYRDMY
PPARa:RXRa, sequence (P19793 whole entry, chain 2 of 2): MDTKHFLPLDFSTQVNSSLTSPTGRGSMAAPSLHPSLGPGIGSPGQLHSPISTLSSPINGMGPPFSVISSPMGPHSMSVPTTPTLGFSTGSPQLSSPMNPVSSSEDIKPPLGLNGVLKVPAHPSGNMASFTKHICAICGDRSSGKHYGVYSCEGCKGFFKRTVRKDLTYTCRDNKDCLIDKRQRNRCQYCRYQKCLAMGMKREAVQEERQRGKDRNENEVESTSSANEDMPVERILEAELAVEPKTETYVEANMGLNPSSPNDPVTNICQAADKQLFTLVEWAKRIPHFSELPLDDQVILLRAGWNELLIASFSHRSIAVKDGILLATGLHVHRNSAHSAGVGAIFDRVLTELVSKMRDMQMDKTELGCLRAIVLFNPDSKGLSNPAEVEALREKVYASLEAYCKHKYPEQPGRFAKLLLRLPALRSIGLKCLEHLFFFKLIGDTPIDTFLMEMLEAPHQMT
In short: as §1

RARa:RXRa, sequence (P10276 whole entry, chain 1 of 2): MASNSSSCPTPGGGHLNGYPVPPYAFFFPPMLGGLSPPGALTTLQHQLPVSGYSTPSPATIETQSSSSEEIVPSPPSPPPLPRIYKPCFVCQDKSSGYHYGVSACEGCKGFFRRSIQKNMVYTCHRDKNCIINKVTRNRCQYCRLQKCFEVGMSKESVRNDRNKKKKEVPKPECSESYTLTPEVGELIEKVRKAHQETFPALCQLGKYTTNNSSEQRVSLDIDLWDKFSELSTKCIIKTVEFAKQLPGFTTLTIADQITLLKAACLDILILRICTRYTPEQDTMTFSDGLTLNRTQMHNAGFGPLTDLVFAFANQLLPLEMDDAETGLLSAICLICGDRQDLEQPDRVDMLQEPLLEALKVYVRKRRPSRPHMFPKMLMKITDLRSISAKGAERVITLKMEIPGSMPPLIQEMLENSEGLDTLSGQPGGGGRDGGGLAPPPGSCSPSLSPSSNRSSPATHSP
RARa:RXRa, sequence (P19793 whole entry, chain 2 of 2): as the sequence (P19793 whole entry, chain 2 of 2) above

Binder	binding signal [1]	binding signal [2]
NRC3_wobSeed40_DR1_A24T_o1 (dsDNA) DNA 1: GCTAGCCTAGGTCATGGGCCAGTTTACCACGCGAACGCGATTGACAGCGTAGAATGAAGG DNA 2: CCTTCATTCTACGCTGTCAATCGCGTTCGCGTGGTAAACTGGCCCATGACCTAGGCTAGC	3.16 PBM z-score against 500 random probes	–
NRC3_wobSeed118_DR4_C7A_o1 (dsDNA) DNA 1: GCTTACAAAGGTGAGCTGAGGTCGTTGATCCAACTCGCGATTGACAGCGTAGAATGAAGG DNA 2: CCTTCATTCTACGCTGTCAATCGCGAGTTGGATCAACGACCTCAGCTCACCTTTGTAAGC	3.12 PBM z-score against 500 random probes	–
NRC3_wobSeed47_DR1_T18G_o1 (dsDNA) DNA 1: GCGGAACGAGGGCAAAGGTGATAGCATCTGTCGACGGCGATTGACAGCGTAGAATGAAGG DNA 2: CCTTCATTCTACGCTGTCAATCGCCGTCGACAGATGCTATCACCTTTGCCCTCGTTCCGC	3.09 PBM z-score against 500 random probes	–
NRC3_wobSeed32_DR1_A25C_o1 (dsDNA) DNA 1: GCTCTTGTAGATCAAAGGTTAAGACAGCCGAAGCCTGCGATTGACAGCGTAGAATGAAGG DNA 2: CCTTCATTCTACGCTGTCAATCGCAGGCTTCGGCTGTCTTAACCTTTGATCTACAAGAGC	3.05 PBM z-score against 500 random probes	–
NRC3_wobSeed82_DR3_G20T_o1 (dsDNA) DNA 1: GCATCGAAAGGTCGACGAGTTGAGTATACACCGTTTGCGATTGACAGCGTAGAATGAAGG DNA 2: CCTTCATTCTACGCTGTCAATCGCAAACGGTGTATACTCAACTCGTCGACCTTTCGATGC	3 PBM z-score against 500 random probes	–
NRC3_wobSeed120_DR4_G20T_o1 (dsDNA) DNA 1: GCCCGAGTAGGTTACGAGGTGGCATTCAGTGCGAATGCGATTGACAGCGTAGAATGAAGG DNA 2: CCTTCATTCTACGCTGTCAATCGCATTCGCACTGAATGCCACCTCGTAACCTACTCGGGC	0.47 PBM z-score against 500 random probes	–
NRC3_wobSeed66_DR2_G9C_o1 (dsDNA) DNA 1: GCAATACACGGTCACTAGGCCAGAGTAGGTACGAATGCGATTGACAGCGTAGAATGAAGG DNA 2: CCTTCATTCTACGCTGTCAATCGCATTCGTACCTACTCTGGCCTAGTGACCGTGTATTGC	0.46 PBM z-score against 500 random probes	–
NRC3_wobSeed124_DR5_C24G_o1 (dsDNA) DNA 1: GCCCTACTGGGCCATTCAGAGGTGATTGATCATATGGCGATTGACAGCGTAGAATGAAGG DNA 2: CCTTCATTCTACGCTGTCAATCGCCATATGATCAATCACCTCTGAATGGCCCAGTAGGGC	0.45 PBM z-score against 500 random probes	–
NRC3_wobSeed99_DR4_A24C_o1 (dsDNA) DNA 1: GCTCTCGGAGGACACGAAAGGTCCGAGCTCGACATCGCGATTGACAGCGTAGAATGAAGG DNA 2: CCTTCATTCTACGCTGTCAATCGCGATGTCGAGCTCGGACCTTTCGTGTCCTCCGAGAGC	0.41 PBM z-score against 500 random probes	–
NRC3_wobSeed10_DR0_C13A_o1 (dsDNA) DNA 1: GCATCGAAAGGTAGAGGTGAGTATAGAGAAAGGGAAGCGATTGACAGCGTAGAATGAAGG DNA 2: CCTTCATTCTACGCTGTCAATCGCTTCCCTTTCTCTATACTCACCTCTACCTTTCGATGC	0.4 PBM z-score against 500 random probes	–
NRC3_wobSeed120_DR4_G21C_o1 (dsDNA) DNA 1: GCCCGAGTAGGTTACGAGGGCGCATTCAGTGCGAATGCGATTGACAGCGTAGAATGAAGG DNA 2: CCTTCATTCTACGCTGTCAATCGCATTCGCACTGAATGCGCCCTCGTAACCTACTCGGGC	0.37 PBM z-score against 500 random probes	–
NRC3_wobSeed42_DR1_T12A_o1 (dsDNA) DNA 1: GCTATACAGGGACAAAGGCCAGAGTACGAATGTCGAGCGATTGACAGCGTAGAATGAAGG DNA 2: CCTTCATTCTACGCTGTCAATCGCTCGACATTCGTACTCTGGCCTTTGTCCCTGTATAGC	0.27 PBM z-score against 500 random probes	–
NRC3_wobSeed32_DR1_G18A_o1 (dsDNA) DNA 1: GCTCTTGTAGATCAAAGATTAAGAAAGCCGAAGCCTGCGATTGACAGCGTAGAATGAAGG DNA 2: CCTTCATTCTACGCTGTCAATCGCAGGCTTCGGCTTTCTTAATCTTTGATCTACAAGAGC	0.26 PBM z-score against 500 random probes	–
NRC3_wobSeed93_DR3_A9C_o1 (dsDNA) DNA 1: GCAGTCAACGTTCATCTAGGTAACGTAAGATATGCTGCGATTGACAGCGTAGAATGAAGG DNA 2: CCTTCATTCTACGCTGTCAATCGCAGCATATCTTACGTTACCTAGATGAACGTTGACTGC	0.24 PBM z-score against 500 random probes	–
NRC3_wobSeed134_DR5_A9C_o1 (dsDNA) DNA 1: GCGCTGCTCGGTCAACTGATGGTCAGCTAAAGCTCGGCGATTGACAGCGTAGAATGAAGG DNA 2: CCTTCATTCTACGCTGTCAATCGCCGAGCTTTAGCTGACCATCAGTTGACCGAGCAGCGC	0.23 PBM z-score against 500 random probes	0.3 PBM z-score against 500 random probes
NRC3_wobSeed30_DR1_G16C_o1 (dsDNA) DNA 1: GCACTAGCAGGCCAACGGTCACTCAAGATTAGTCCGGCGATTGACAGCGTAGAATGAAGG DNA 2: CCTTCATTCTACGCTGTCAATCGCCGGACTAATCTTGAGTGACCGTTGGCCTGCTAGTGC	0.08 PBM z-score against 500 random probes	–
NRC3_wobSeed114_DR4_T12C_o1 (dsDNA) DNA 1: GCAATACAGGGCCATCGTAGGCCAGAGTACGCACAGGCGATTGACAGCGTAGAATGAAGG DNA 2: CCTTCATTCTACGCTGTCAATCGCCTGTGCGTACTCTGGCCTACGATGGCCCTGTATTGC	-0.01 PBM z-score against 500 random probes	–
NRC3_wobSeed76_DR3_T21G_o1 (dsDNA) DNA 1: GCCCTACTGGGCCAAAAAGGGCATTGATGCCGATAAGCGATTGACAGCGTAGAATGAAGG DNA 2: CCTTCATTCTACGCTGTCAATCGCTTATCGGCATCAATGCCCTTTTTGGCCCAGTAGGGC	-0.04 PBM z-score against 500 random probes	–
NRC3_random_hg19_454_o1 (dsDNA) DNA 1: GCTGTCCTTTGTAGCAACATGTATGGAAATGGAGGCGCGATTGACAGCGTAGAATGAAGG DNA 2: CCTTCATTCTACGCTGTCAATCGCGCCTCCATTTCCATACATGTTGCTACAAAGGACAGC	0.46 PBM z-score against 500 random probes	–
NRC3_random_hg19_40_o1 (dsDNA) DNA 1: GCAAGAACCAGTGGATTCATAAGGGTGACAGTTCAGGCGATTGACAGCGTAGAATGAAGG DNA 2: CCTTCATTCTACGCTGTCAATCGCCTGAACTGTCACCCTTATGAATCCACTGGTTCTTGC	0.33 PBM z-score against 500 random probes	–
NRC3_random_hg19_466_o1 (dsDNA) DNA 1: GCAGCTTGACTTTGGTGACATTCTTCCTTCGTCCCTGCGATTGACAGCGTAGAATGAAGG DNA 2: CCTTCATTCTACGCTGTCAATCGCAGGGACGAAGGAAGAATGTCACCAAAGTCAAGCTGC	0.17 PBM z-score against 500 random probes	–
NRC3_random_hg19_271_o1 (dsDNA) DNA 1: GCCTCCCTCCCATCGCCTGAACCTGCTGGAATGAGCGCGATTGACAGCGTAGAATGAAGG DNA 2: CCTTCATTCTACGCTGTCAATCGCGCTCATTCCAGCAGGTTCAGGCGATGGGAGGGAGGC	0.16 PBM z-score against 500 random probes	0.08 PBM z-score against 500 random probes
NRC3_random_hg19_470_o1 (dsDNA) DNA 1: GCCAGGAAGGGACAAAGGCCAGGCATGGTGGTTCATGCGATTGACAGCGTAGAATGAAGG DNA 2: CCTTCATTCTACGCTGTCAATCGCATGAACCACCATGCCTGGCCTTTGTCCCTTCCTGGC	-0.18 PBM z-score against 500 random probes	–
NRC3_random_hg19_133_o1 (dsDNA) DNA 1: GCTCAAGGAGAAAGACACTCCTTTGAAGCGTTGGAAGCGATTGACAGCGTAGAATGAAGG DNA 2: CCTTCATTCTACGCTGTCAATCGCTTCCAACGCTTCAAAGGAGTGTCTTTCTCCTTGAGC	-0.29 PBM z-score against 500 random probes	–
NRC3_random_hg19_267_o1 (dsDNA) DNA 1: GCGCCTCAGTCATGAGTCACATGAAAGTGACTCACCGCGATTGACAGCGTAGAATGAAGG DNA 2: CCTTCATTCTACGCTGTCAATCGCGGTGAGTCACTTTCATGTGACTCATGACTGAGGCGC	-0.31 PBM z-score against 500 random probes	–
NRC3_random_hg19_496_o1 (dsDNA) DNA 1: GCAGCATCTGACAAGGCTGACTACTCCCATCTGGATGCGATTGACAGCGTAGAATGAAGG DNA 2: CCTTCATTCTACGCTGTCAATCGCATCCAGATGGGAGTAGTCAGCCTTGTCAGATGCTGC	-0.43 PBM z-score against 500 random probes	–
NRC3_random_hg19_116_o1 (dsDNA) DNA 1: GCTGGGCACATGAGGGATGGGAGTTGATCTCTGTGGGCGATTGACAGCGTAGAATGAAGG DNA 2: CCTTCATTCTACGCTGTCAATCGCCCACAGAGATCAACTCCCATCCCTCATGTGCCCAGC	-0.48 PBM z-score against 500 random probes	–
NRC3_random_hg19_279_o1 (dsDNA) DNA 1: GCTGCAGTGGTAACAGTCTGACTTCTAAACTGCTATGCGATTGACAGCGTAGAATGAAGG DNA 2: CCTTCATTCTACGCTGTCAATCGCATAGCAGTTTAGAAGTCAGACTGTTACCACTGCAGC	-0.56 PBM z-score against 500 random probes	–
NRC3_random_hg19_382_o1 (dsDNA) DNA 1: GCAATGAAGTGGATGCATGGTTGGTGGCTCAGCAGCGCGATTGACAGCGTAGAATGAAGG DNA 2: CCTTCATTCTACGCTGTCAATCGCGCTGCTGAGCCACCAACCATGCATCCACTTCATTGC	-0.69 PBM z-score against 500 random probes	–
NRC3_random_hg19_146_o1 (dsDNA) DNA 1: GCGCCTCTAGGTCTTTGAGGAATTGCCACACTGTCTGCGATTGACAGCGTAGAATGAAGG DNA 2: CCTTCATTCTACGCTGTCAATCGCAGACAGTGTGGCAATTCCTCAAAGACCTAGAGGCGC	-0.8 PBM z-score against 500 random probes	–

Reference: paper PMC6555819, “Comprehensive study of nuclear receptor DNA binding provides a revised framework for understanding receptor specificity”
